Laboratory results: a protein production outcome set (Wang et al. 2014)

Test: label from the status in PepcDB records

Sequence | protein production
MAPPAQKGNLRKRSGKTSTAVNSAINENVRKLVRSLSEPGTSQKKLRQMEDTALKIIANQRRTWAPTTTDMEVKRNLDDLAERFRAEGMASFGESIKDLAIRYLAMDENQQQFNPNPGWQMLELLFRIADRPVQKIRLNREFMEQRRLSIINSMEEAERQAQIEEQAKLEAAKNTSETEVDWAALLSEDFLDPPEDDSSDSLSDWSEESDCDSTTTLKPDENIGVSRSLLEMARVYEQAMMAVVPTGSVNKTYMPPEQSVIRSYDFRIMKPTVLSLNNLKGSHLRRSKLLQLPPPQPPRPFTQYWQSGNTDTLFRKIHSHWWCQDVHLNALPSSAKPLDNFAVSYVQFLNHNARGLLALPVPKTITEPCLLREILFMFVRPASCCFFEFDKATRRITVRDNVSICTVTASTMQNFLLFNVVPALEDMMELRHIIDTHTLHFHGVKTTYTVEFFAYGLRDLVQPICQLLIAYEDRVNKDPAKNTLIRFTIEFREHFSQLRLLRELAEDVILDKGPAHIRSAYLLSRLYKHTLLQVPHQKLATALLFISLKRYCIIIDGWWRRAALEDHLREFIVEFCYEEDANTRSHVRKRNMGMEDDLLLVEIFNKLQSCPLYQLLLEHALESGETQDLLCSVNTLSEMLTSNNEIQLPSLHDELFTQFFAQLKVYCGADNTDYEDEPEPDKDYEDLTVCNRQGIRNHELFAIFTQPLVEQRLERQRERLKSNPVLMANILKRLERSTCLQLKSELPEALREILRRRQWLANEYAIRAYCKETQVAEKMRFLRHTMLLEKYYLFVPYYNALFVRMEKNNSWALGSVLTSKLCAVLLPHYPQLAHYLHVKLISQINSNSIKVYEALEAIELDFERPMAMHQWYILTPAHMQDYNSVWRLMLKVKWAVWKLENMQFLRRARFNPCAPLDLIGLTIRRLEIVRFWLIFLINNLHAHIMEAVSRQFELRIGECKNVRELRIMHDEHLAWLKTHCMLTDEFKAFRVALDQIFHLVYVLDMEWTTCASCMHDHDALCLDFTISDDGIDDSETQRRSLEYLALNQVAEIELTYIRCHQMLADILNTLVHQNDHGFLSALEETINSSVPH | failed
HRYIPTLFFHGWGSSYHAETHMADAIVKAGKTQTIVRAMVAKNGTVTLKGHFRSGDYRPIVEVNFANNRSSDYPTVGRWAKNVVVALQRTYGITSFNMVGHSMGNMAITYYLLANAQNKRLPQLRQQVAIAGHFNGILGMDDSPNQMTLNAAGRPNKLRPAYRQLLGLRRVYPRQQVRVLNIYGDKGDGTHSDGSVSNASSRSLRYLVAARARSYREVKLTGKHAQHSQLHENAQVDRLLIDFLWPTH | not failed
MAARNAFYAQSGGVTAVINASACGVLETARQYPDRIGTVYAGRNGIVGALTEDLIDTGQESAEAIAALRHTPSGAFGSCRYKLKGLEENRAQYERLIEVFRAHDIGYFFYNGGGDSADTCLKVSQLSEKLGYPLQAVHIPKTVDNDLPITDCCPGFGSVAKYIAVSVREASFDVRSMAATSTCIFVLEVMGRHAGWIAAAGGLASDERHELALVILFPEQVFDPERFLRAVDEKVRSHGYCSVVVSEGIRGADGRFVAESGSRDVFGHARLGGVAPVIADLIKERLGYKYHWAVADYLQRAARHIASRTDVEQAYAVGKAGVEMALKGLSAVMPAIVRTSDSPYRWEITAASLAEVANVEKKMPLEFISADGFGITEACRRYLRPLIEGEDYPPYAGGLPDYVTLCNVAVPKKLAASFSV | failed
MTYLVTGATGGLGGYALNYLKELVPMSDIYALVRSKEKGADLKAAGFNIRVGDYSDAESMKQAFAGIDRVLFVSGAPGNRQVEHENVINAAKKAGVSYIAYTSFAGADKSTSALAEDHFFTEKVIEKSGIAHTFLRNNWYFENEMPMIGGALSAGKFVYAAENGKVGWALKREYAEVAAKAVAGAGFPEILELSGPLMTYEELTKALKEATGKDFDVISSDDKGFVENLVSVGLPQPVAEMFLSFQHDIKNDQLDVTSDDFEKALGKPLTNRVDALRELLKLEHHHHHH | not failed
MKDPRDFVPEDLSDLETAMLEMAEKDIRKAYTITDKQERYAALDALKTEIINKFMPETEEDCKFSVDQIATVFKQLQAKIVRSNILDTKKRIDGRDLSTVRPIQSEVGILPRTHGSALFTRGETQAIVVATLGTGEDEQYIDSLTGLEHHHHHH | not failed
MIDIHCHILPEIDDGPSSLEESLVMAREAVKEGITKIIATPHHLHPSYNNKAAVVKEKVRKLNEAIQKENIPLEILPGQEVRISGDVMDGLVSGDILTLADQGKYLFVEFSSNHVSRYADKLFFQLLSQDIIPIIVHPERNHEFLKNPGLLYDLVNGGALTQITTSSLTGHLGKKIKKFTEQIIEADLTHFLASDAHNVTERTFRIREAFALVEKNYGSSKAYEFQENAELLVENQHVMGPPPQPIVKKKLLGIF | failed
MSGDILNDIVAACLELERKASSVFKMFAAHAGSDEARRFWETVADETRHHSAVYERLQERGGRENLPIIIYKPAETLEELEMIGKSIDEQVERYTEAPSSEAACLLGFRLQLYLLHPAFASLCRLTRDASGEDLPDIGYGRYLRRFIDGIGSCGLATAETELLGEALFRLWNEARQLAAQSHFDALTGVMTRAGFFKTVGSLAYAAQRSGSNVGIMLIDLDYFKLVGDNYGHQTGDRILQLVAETITSHLRRSDVVGRYDGDEFVVYLSPVEPASLRTVAENLRRSIEEESARMVPVTASIGVAQGILGTDVDGGIEELVRLADECLMQAKYTGKNKVVVK | not failed
MVKTRAQRIKRMSVVDALCIRSQISVKSARYCKTVSKHLAKLQLAESGKNSSLVVCPSMGKTMKLYSMDAKRCKLSLLSTIDPSQRTPEVFMYMISSYNGIICCVNMIYDEDVENKFCDLQIWICNPITKETLLLPQGTPSFEFEPSIGVAYGSDVSDYKVYRIFCTGKIIPEERGPAEGFYVQEGRFFTKYGHSLAYECEVYSSSTGSWKNIGTVPCLPMSCSLRPYRRTGHIFVGGKVYWLVSLDAPGKILSVDLEGKFEVINLPAYADGLREDEQITEASHLINLKGSLGLLVLHPENMDVWVWKHDGERYSWVFQFKDVVPIKDDELILAVTALDNKIICVNETHWRIYDMETEKWKRRKSPRTGFRNPVVLPFTESVLPCNGGVKQ | failed
MESSFSFGVILAVLASLIIATNTLVAVAVLLLIHKNDGVSLCFTLNLAVADTLIGVAISGLLTDQLSSPSRPTQKTLCSLRMAFVTSSAAASVLTVMLITFDRYLAIKQPFRYLKIMSGFVAGACIAGLWLVSYLIGFLPLGIPMFQQTAYKGQCSFFAVFHPHFVLTLSCVGFFPAMLLFVFFYCDMLKIASMHSQQIRKMEHAGAMAGGYRSPRTPSDFKALRTVSVLIGSFALSWTPFLITGIVQVACQECHLYLVLERYLWLLGVGNSLLNPLIYAYWQKEVRLQLYHMALGVKKVLTSFLLFLSARNCGPERPRESSCHIVTISSSEFDG | failed
MIPRCLINQILRLAQASPEREVCGLVGAAAGRRMRCYPVPNVAERPECRFLLDPKGQIDALRAMRERGEELFAIFHSHPTAAAIPSPADLEFAAYPEALHLIVSLGTKGVLEMRGFRIGSSSRPREVELLLAPELEHHHHHH | failed
MSSSPEKKRRKKLSPESNSLPNDLIVTILARLSQSYYPKLSLVSKTFRAILASPELYQTRILLSRTETFLYVCLSFPGEPNPGWFTLYRKPNQTLTTKKKKNSVHLLAPILNSPPVEFPSLIAVGSYLYAFRAAIEEGTSDSLNCVEVYNTDTQTWIPVPPNKRIFKLQHMKGMLYMKVSKLLSFVAQDAEELAPLFPKLRSLLSTEVVAFKPKVSEGYEVLGFSVNTDLGRGSFCMIEEITYHYDPSVKFRWRRRQGGVWRSLVGLEGLPKFARYSSVKLADCGGKLVVLWHKYVPASGYEEKMVWCAEISLEKRSKKEIWGKIEWFDAVLRVPKYYQFVGAKSATV | failed
MRVAVAGGTGLVGKYVVAELRAAGHTPVVLARSHGVDLTTGAGLAGKLSGSDAVIDVANIVTTRRKTAVDFFSRTTGHLIAAARAGGVAHLVTLSIVGSDEVDFGYYFGKRAQEELVRDGAVPWTVVRATQFFEFPEPLLNGVSPVVVVPRMLTRPVAAQDVAQTLVEHAVEGPAGMAPEIAGPDQLDMVDMARRIARARGSRRLVVPVTLPGKVGKAMTTGGLLPRGEYLRGRRTFDAHLASLRAA | failed
GFSHRSQQLLEQSVAKQLPLLERKYHQKNLEAAMVVTDIASGEIRALVGGRESGYAGFNRALNAKRHIGSLIKPAIYVAALERYQQYNFATILDDKAITLRNGTGKKWQPKNYDGKYRGQVSLIEGLVFSLNVPTINLGMSLGLDSVADAIKALGYQQKLKMRPSVLLGAVNMSPLEINQLYLAIANNGYYQKTHTITKILSSNNETLWQKQQSSEQRLSSNAAYLLDYALERVTQVGTARSLTWRLNNKKVAGKTGTSNALRDSWFIGYDSKHLITTWLGKDNNKPTGLTGSSGALPLFADFINKQGVINKVEAK | failed
